± gives the standard deviation of the averaged measurements.
B1: library; a variant is named by its letters at N, in order (parent)
chain: GCUGUCACCGGAAUACCAGCAUCGUCUUGAUGCCCUUGGAAGUCCGGUCUGAUGAGUCCNNNNNGGACGAAACAGC

Tests used:
theophylline [1] = variants of: B1; assay: FACS-Seq fitted mean relative fluorescence mCherry/BFP without ligand (log10 relative fluorescence); higher = higher reporter protein expression; conditions: HEK293T, ligand present: no
Outline: (§1)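 Genomic DNA from 6 mCherry/BFP sort bins was PCR-amplified, barcoded and sequenced on MiSeq. The sorted cells were enriched HEK293T libraries, lentivirally transduced with a ribozyme-switch mCherry reporter and an EF1α-BFP marker, incubated with or without ligand for 48 h. Fluorescence derives from a normal fit to the bin counts. The fit was on log10(mCherry/BFP), and means were scaled to five spiked-in control ribozymes.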

theophylline [2] = variants of: B1; assay: normalized RNA/DNA level with ligand (relative to sTRSVctl = 100) (log10 (% of sTRSVctl)); higher = less ribozyme self-cleavage, higher mRNA level; conditions: ligand concentration (+) RNA-Seq: 5 mM, HEK293T, reporter: mCherry (pCS4076), ligand present: yes
Outline: (§2)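 Ribozyme switch library plasmids with mCherry reporters (eGFP in certain ligand experiments) went into HEK293T cells at 4 µg per 6-well well. Where ligand was used, it was applied 1 h before transfection, and total RNA was extracted with EDTA 72 h later for reverse transcription, amplification, barcoding and sequencing. RNA level is the RNA-to-DNA read ratio normalized to a spiked-in non-cleaving sequence or to the leading sequences, then scaled and log-transformed. Scaling was ×100 with log10, the leading set comprised 25 sequences, and the cutoff was ≥100 DNA reads.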

theophylline [3] = variants of: B1; assay: normalized RNA/DNA level without ligand (relative to sTRSVctl = 100) (log10 (% of sTRSVctl)); higher = less ribozyme self-cleavage, higher mRNA level; conditions: HEK293T, reporter: mCherry (pCS4076), ligand present: no
Outline: as §2

theophylline [4] = variants of: B1; assay: FACS-Seq fitted mean relative fluorescence mCherry/BFP with ligand (log10 relative fluorescence); ligand concentration (+) FACS-Seq: 1 mM; higher = higher reporter protein expression; conditions: HEK293T, ligand present: yes
Outline: as §1

Variant | FACS-Seq fitted mean (log10) (theophylline [1]) | normalized RNA/DNA level with ligand (log10) (theophylline [2]) | normalized RNA/DNA level without ligand (log10) (theophylline [3]) | FACS-Seq fitted mean (log10) (theophylline [4])
AUAAC | 0.876 ± 0.022 | 2.05 ± 0.13 | 1.96 ± 0.15 | 0.881 ± 0.11
UCCGG | 1.14 ± 0.16 | 1.97 ± 0.12 | 2.05 ± 0.077 | 1.02 ± 0.03
AUAGC | 0.922 ± 0.023 | 1.94 ± 0.082 | 1.87 ± 0.12 | 0.9641 ± 0.0048
CCUUU | 0.664 ± 0.036 | 2.046 ± 0.019 | 1.85 ± 0.039 | 0.81 ± 0.074
CCUUA | 0.654 ± 0.02 | 1.992 ± 0.0039 | 1.73 ± 0.1 | 0.707 ± 0.035
AUCCG | 0.573 ± 0.011 | 1.92 ± 0.097 | 1.96 ± 0.014 | 0.591 ± 0.063
AAGGG | 0.3836 ± 0.0021 | 1.85 ± 0.028 | 1.75 ± 0.037 | 0.381 ± 0.037
ACACG | 1.12 ± 0.1 | 1.93 ± 0.024 | 1.8 ± 0.026 | 1.2 ± 0.07
GACAG | 0.769 ± 0.29 | 1.952 ± 0.0094 | 1.77 ± 0.055 | 0.612 ± 0.13
AGAAA | -0.278 ± 0.17 | 1.853 ± 0.0095 | 1.12 ± 0.042 | 0.515 ± 0.022
AUGCG | 0.848 ± 0.14 | 1.99 ± 0.11 | 1.87 ± 0.06 | 0.986 ± 0.1
UAUCC | 0.705 ± 0.11 | 2.007 ± 0.016 | 2.02 ± 0.14 | 0.572 ± 0.019
UGACA | 0.298 ± 0.03 | 1.93 ± 0.051 | 1.52 ± 0.048 | 0.527 ± 0.05
UGACU | 1.21 ± 0.077 | 1.9948 ± 0.0009 | 1.87 ± 0.022 | 1.22 ± 0.12
AAUAG | 0.929 ± 0.015 | 1.965 ± 0.015 | 1.85 ± 0.039 | 0.894 ± 0.16
UCCCU | 0.877 ± 0.032 | 2.08 ± 0.12 | 1.97 ± 0.026 | 1.03 ± 0.11
CCUAU | 0.969 ± 0.015 | 2.06 ± 0.025 | 1.867 ± 0.0061 | 1.05 ± 0.031
UUACC | 0.865 ± 0.28 | 2.02 ± 0.022 | 1.96 ± 0.095 | 0.847 ± 0.12

Variant | FACS-Seq fitted mean (log10) (theophylline [1]) | normalized RNA/DNA level with ligand (log10) (theophylline [2]) | normalized RNA/DNA level without ligand (log10) (theophylline [3]) | FACS-Seq fitted mean (log10) (theophylline [4])
AGGGC | 0.731 ± 0.092 | 1.95 ± 0.022 | 1.93 ± 0.094 | 0.756 ± 0.037
AGGGA | 0.303 ± 0.0048 | 2.04 ± 0.079 | 1.48 ± 0.1 | 0.659 ± 0.029
UGGUC | 0.57045 ± 0.00034 | 1.984 ± 0.0062 | 1.95 ± 0.12 | 0.356 ± 0.084
AGGAG | 0.642 ± 0.032 | 1.92 ± 0.022 | 1.73 ± 0.072 | 0.834 ± 0.045
AGGAA | 0.0559 ± 0.0084 | 1.85 ± 0.12 | 1.17 ± 0.079 | 0.552 ± 0.029
AGAUA | 0.67126 ± 0.00023 | 2.01 ± 0.027 | 1.61 ± 0.11 | 0.73474 ± 0.00057
ACCCG | 0.917 ± 0.11 | 2 ± 0.012 | 1.94 ± 0.12 | 0.973 ± 0.031
ACCCC | 0.753 ± 0.1 | 2.037 ± 0.0066 | 1.99 ± 0.053 | 0.657 ± 0.08
ACCCU | 0.718 ± 0.011 | 2.023 ± 0.016 | 1.93 ± 0.091 | 0.587 ± 0.09
ACGCG | 1.002 ± 0.0074 | 2.009 ± 0.009 | 1.86 ± 0.036 | 1.09 ± 0.058
ACGGU | 0.778 ± 0.062 | 1.89 ± 0.13 | 1.7 ± 0.095 | 1.004 ± 0.0021
AACUG | 0.814 ± 0.11 | 2 ± 0.12 | 1.8 ± 0.18 | 0.939 ± 0.032
UAAUG | 0.816 ± 0.076 | 1.929 ± 0.0084 | 1.814 ± 0.0095 | 0.887 ± 0.071
UCGAU | 0.605 ± 0.16 | 2.087 ± 0.0041 | 1.78 ± 0.12 | 0.815 ± 0.057
UCGAC | 0.96 ± 0.048 | 1.9 ± 0.12 | 1.78 ± 0.059 | 0.965 ± 0.022
UACCC | 0.622 ± 0.13 | 2.02 ± 0.026 | 2.04 ± 0.048 | 0.599 ± 0.045
GAUGU | 0.101 ± 0.097 | 1.88 ± 0.052 | 1.71 ± 0.099 | 0.375 ± 0.068
GAUGG | -0.543 ± 0.056 | 2 ± 0.062 | 1.8 ± 0.022 | -0.332 ± 0.0071

From the supplement of paper PMC6757056
